From publication PMC9892613, “Thermodynamic analysis of an entropically driven, high-affinity nanobody-HIV p24 interaction” (Biophysical Journal, 2022)

Target: T1, HIV-1 capsid protein p24 (His-p24) (HIV-1 group M subtype B, NY5/NL4-3 …, UniProt P12493)
T1 construct: capsid protein p24 of HIV-1, the cut product of the Gag polyprotein; amplified from the template pWISP98-85 (NIH ARP); also called HIV-1 p24; p24 antigen; source: E. coli BL21-Star(DE3)pLysS, pET3a-His-p24, purified in-house; not shown: His6-Cys, N-terminal, kept
Assay: BLI; in the same nanobody storage buffer (Fig. S5)
Conditions: both partners purified

B1: nanobody 48G11 (59H10 F93D) (VHH)
VHH: DVQLQESGGGLVQAGGSLRLSCAASGSISRFNAMGWWRQAPGKEREFVARIVKGFDPVLADSVKGRFTISIDSAENTLALQMNRLKPEDTAVYYCDAALDTAYWGQGTQVTVSS
notes: as the chain of m2 (59H10, PDB 5O2U chain B) with F93D; made by site-directed mutagenesis; Artificial variant of 59H10 with one changed residue; also called 48G11 (F93D)
- binding result: no binding
